Data published in patent publication US20010052137.

Columns and labels:
[1] = tested on: T1, Myc-tagged GID-2 construct of Xaxin (amino acid residues 320-429)
T1 sequence: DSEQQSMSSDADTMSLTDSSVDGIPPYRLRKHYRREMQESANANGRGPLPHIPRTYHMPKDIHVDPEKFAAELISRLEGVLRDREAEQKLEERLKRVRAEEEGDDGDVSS

[2] = tested on: T2, Myc-tagged GID-3 construct of Xaxin (amino acid residues 320-375)
T2 sequence: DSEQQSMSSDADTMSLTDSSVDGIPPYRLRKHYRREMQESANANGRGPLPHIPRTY

[3] = tested on: T3, Myc-tagged GID-4 construct of Xaxin (amino acid residues 350-429)
T3 sequence: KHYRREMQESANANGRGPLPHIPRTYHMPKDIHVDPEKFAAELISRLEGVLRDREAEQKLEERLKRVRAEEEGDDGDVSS

[4] = tested on: T4, Myc-tagged GID-5 construct of Xaxin (amino acid residues 380-429)
T4 sequence: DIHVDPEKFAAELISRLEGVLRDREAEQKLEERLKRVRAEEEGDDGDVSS

[5] = tested on: T5, Myc-tagged GID-6 construct of Xaxin (amino acid residues 380-404)
T5 sequence: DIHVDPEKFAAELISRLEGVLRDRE

[6] = tested on: T6, GID-2/his fusion protein (Xaxin amino acid residues 320-429 with His-epitope tag, from E. coli)
T6 sequence: T1 sequence

Substance	GSK-3 beta mediated tau phosphorylation in Xenopus oocytes [1]	GSK-3 beta mediated tau phosphorylation in Xenopus oocytes [2]	GSK-3 beta mediated tau phosphorylation in Xenopus oocytes [3]	GSK-3 beta mediated tau phosphorylation in Xenopus oocytes [4]	GSK-3 beta mediated tau phosphorylation in Xenopus oocytes [5]	GSK-3 beta mediated phosphorylation of the GS-2 peptide derived from glycogen synthase, in vitro [6]	phosphorylation of tau by GSK-3 beta, in vitro [6]
GSK-3 beta (glycogen synthase kinase-3 beta) expressed in Xenopus oocytes	bound GSK-3 beta and inhibited GSK-3 beta mediated tau phosphorylation	did not bind GSK-3 beta and had no effect on GSK-3 beta activity	bound GSK-3 beta and inhibited GSK-3 beta mediated tau phosphorylation	bound GSK-3 beta and inhibited GSK-3 beta mediated tau phosphorylation	bound GSK-3 beta and inhibited GSK-3 beta mediated tau phosphorylation	–	–
Recombinantly-produced GSK-3 beta protein (New England Biolabs)	–	–	–	–	–	GID-2/his exhibited no significant effect on GSK-3 beta mediated phosphorylation of the GS-2 peptide	GID-2/his also did not inhibit phosphorylation of tau by GSK-3 beta, even when GID-2/his was present at a 200-fold molar excess
